Measurements: US20180057581A1 (MorphoSys, published 2018)

What was measured:
human M-CSF = target: T1, human M-CSF (human, UniProt P09603 33-255, limits assumed); experiment: ELISA
T1 construct: also called M-CSF (human); CSF-1
T1 sequence: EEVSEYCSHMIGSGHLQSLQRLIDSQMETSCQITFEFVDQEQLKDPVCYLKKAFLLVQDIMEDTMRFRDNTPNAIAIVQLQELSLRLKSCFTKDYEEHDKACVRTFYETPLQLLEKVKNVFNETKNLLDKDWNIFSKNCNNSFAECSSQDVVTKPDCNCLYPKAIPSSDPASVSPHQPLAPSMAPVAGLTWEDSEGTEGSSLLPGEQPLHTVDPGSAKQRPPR

Lysozyme (chicken) = Lysozyme (chicken) (chicken, UniProt P00698 19-147); experiment: MSD specificity profiling, coated protein
Experimental: (§1) For this specificity profiling test the different proteins and controls were coated on two 384-well MSD plates with a concentration of 1 μg/ml at 4° C. over night. Plates were blocked with BSA and washed three times with PBS with 0.05% (v/v) Tween 20. Antibody samples were diluted to 100 nM and 10 nM in assay buffer (PBS with 0.5% (w/v) BSA, 0.05% (v/v) Tween 20). […] Samples and controls were incubated for three hours at room temperature. The plates were washed three times and 30 μl detection antibody (ECL-labeled anti-human Fab) were added per well and incubated for 1 h. After washing, MSD Read Buffer T with surfactant was added and electrochemiluminescence signals were detected using a Sector Imager 6000 (Meso Scale Discovery, Gaithersburg, Md., USA).

Lectin (Lens culinaris) = target: T2, Lectin (Lens culinaris) (Lens culinaris, UniProt P02870 31-210; P02870 218-269, limits assumed); experiment: MSD specificity profiling, coated protein
T2 sequence (looked up) 1: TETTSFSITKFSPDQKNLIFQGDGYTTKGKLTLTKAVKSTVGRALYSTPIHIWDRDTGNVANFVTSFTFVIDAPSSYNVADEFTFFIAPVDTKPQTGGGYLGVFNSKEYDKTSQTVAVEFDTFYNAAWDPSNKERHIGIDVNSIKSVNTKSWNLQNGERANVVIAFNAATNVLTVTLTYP
T2 sequence (looked up) 2: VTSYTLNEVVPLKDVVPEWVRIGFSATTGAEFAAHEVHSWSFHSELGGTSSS
Experimental: as §1

Cytochrome c (cow) = Cytochrome c (cow) (cow, UniProt P62894 2-105); experiment: MSD specificity profiling, coated protein
Experimental: as §1

Transferrin (bovine) = Transferrin (bovine) (bovine, UniProt Q29443 20-704); experiment: MSD specificity profiling, coated protein
Experimental: as §1

RNase B (cow) = target: T3, RNase B (cow) (cow, UniProt P61823 27-150); experiment: MSD specificity profiling, coated protein
T3 sequence (looked up): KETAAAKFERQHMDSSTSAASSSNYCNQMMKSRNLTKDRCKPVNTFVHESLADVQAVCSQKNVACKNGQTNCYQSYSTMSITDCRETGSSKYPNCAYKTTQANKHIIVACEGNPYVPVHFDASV
Experimental: as §1

Fibrinogen (bovine) = target: T4, Fibrinogen (bovine) (bovine, UniProt P02672 20-615; P02676 1-468; P12799 25-444); experiment: MSD specificity profiling, coated protein
T4 sequence (looked up) 1: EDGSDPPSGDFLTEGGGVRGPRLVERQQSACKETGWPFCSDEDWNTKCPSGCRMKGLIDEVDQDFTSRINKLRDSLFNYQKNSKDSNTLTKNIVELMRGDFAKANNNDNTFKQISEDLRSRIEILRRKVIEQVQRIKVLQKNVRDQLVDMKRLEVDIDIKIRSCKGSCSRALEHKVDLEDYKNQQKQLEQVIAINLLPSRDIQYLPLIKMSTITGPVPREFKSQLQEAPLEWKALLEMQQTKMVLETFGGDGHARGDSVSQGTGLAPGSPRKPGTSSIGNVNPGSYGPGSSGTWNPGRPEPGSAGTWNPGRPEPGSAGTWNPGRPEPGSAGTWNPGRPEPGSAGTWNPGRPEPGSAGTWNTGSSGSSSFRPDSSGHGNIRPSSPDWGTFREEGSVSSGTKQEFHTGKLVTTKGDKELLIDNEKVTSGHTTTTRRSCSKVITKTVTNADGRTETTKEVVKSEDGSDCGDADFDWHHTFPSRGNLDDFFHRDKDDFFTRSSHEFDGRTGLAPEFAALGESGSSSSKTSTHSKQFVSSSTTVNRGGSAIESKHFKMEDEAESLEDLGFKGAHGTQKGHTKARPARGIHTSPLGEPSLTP
T4 sequence (looked up) 2: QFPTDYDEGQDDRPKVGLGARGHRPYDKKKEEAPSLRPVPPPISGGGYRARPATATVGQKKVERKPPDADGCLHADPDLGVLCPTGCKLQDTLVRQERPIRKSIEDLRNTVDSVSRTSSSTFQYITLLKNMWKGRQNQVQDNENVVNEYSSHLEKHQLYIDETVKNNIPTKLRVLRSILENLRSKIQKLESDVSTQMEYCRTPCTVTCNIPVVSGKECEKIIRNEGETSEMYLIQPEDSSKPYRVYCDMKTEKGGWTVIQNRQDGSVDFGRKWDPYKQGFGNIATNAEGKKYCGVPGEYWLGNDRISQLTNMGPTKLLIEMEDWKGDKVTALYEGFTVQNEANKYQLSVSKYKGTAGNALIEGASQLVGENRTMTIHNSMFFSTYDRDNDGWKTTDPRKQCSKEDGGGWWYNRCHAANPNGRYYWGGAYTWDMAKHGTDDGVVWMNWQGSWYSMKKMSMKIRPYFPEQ
T4 sequence (looked up) 3: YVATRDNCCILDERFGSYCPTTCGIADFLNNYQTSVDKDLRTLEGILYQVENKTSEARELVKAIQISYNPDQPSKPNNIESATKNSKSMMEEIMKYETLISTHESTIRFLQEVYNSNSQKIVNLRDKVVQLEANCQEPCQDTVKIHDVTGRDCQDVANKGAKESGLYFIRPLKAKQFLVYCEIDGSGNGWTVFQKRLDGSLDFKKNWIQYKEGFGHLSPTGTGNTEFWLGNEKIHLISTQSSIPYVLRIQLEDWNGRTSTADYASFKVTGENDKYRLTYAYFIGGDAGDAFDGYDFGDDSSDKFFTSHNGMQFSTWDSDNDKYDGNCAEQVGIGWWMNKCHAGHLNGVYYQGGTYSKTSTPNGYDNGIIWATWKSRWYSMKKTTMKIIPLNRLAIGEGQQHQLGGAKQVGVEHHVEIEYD
Experimental: as §1

Cytochrome c (cow), sequence (P62894 2-105 limits assumed): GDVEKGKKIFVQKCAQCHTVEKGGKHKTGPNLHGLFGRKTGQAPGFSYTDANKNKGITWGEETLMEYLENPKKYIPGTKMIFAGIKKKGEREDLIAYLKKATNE
Transferrin (bovine), sequence (Q29443 20-704 limits assumed): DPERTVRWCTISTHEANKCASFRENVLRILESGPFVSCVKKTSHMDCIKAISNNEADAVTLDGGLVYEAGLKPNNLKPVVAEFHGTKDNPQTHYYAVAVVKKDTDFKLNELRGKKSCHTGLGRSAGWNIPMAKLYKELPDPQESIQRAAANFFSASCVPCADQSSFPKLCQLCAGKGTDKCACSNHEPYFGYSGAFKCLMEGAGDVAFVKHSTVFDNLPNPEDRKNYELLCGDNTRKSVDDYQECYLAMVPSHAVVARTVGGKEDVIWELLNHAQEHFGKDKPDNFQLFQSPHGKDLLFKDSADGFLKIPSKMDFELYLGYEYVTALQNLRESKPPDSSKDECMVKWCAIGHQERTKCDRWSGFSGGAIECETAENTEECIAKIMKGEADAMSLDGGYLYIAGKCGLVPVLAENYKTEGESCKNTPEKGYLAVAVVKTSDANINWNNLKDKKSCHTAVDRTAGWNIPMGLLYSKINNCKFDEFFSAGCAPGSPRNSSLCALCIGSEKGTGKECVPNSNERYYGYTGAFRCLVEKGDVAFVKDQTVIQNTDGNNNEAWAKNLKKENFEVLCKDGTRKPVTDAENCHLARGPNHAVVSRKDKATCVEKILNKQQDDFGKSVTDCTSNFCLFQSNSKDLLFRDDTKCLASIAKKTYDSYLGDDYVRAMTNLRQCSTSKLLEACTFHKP
Lysozyme (chicken), sequence (P00698 19-147): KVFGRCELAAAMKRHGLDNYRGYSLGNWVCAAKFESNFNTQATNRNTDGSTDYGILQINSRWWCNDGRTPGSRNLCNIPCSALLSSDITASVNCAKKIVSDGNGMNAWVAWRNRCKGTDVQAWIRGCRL

B1: Camille (format not stated) (antibody, V domains shown)
VH: QVQLQQSGPGLVKPSQTLSLTCAISGESVSTSSAAWNWIRQSPSRGLEWLGRTYYRSKWKHEYAVSVKSRITINPDTSKNQFSLQLNSVTPEDTAVYYCARDRYYYSAFDYWGQGTLVTVSS
VL: QSALTQPASVSGSPGQSITISCTGTSSDVGGYNSVSWYQQHPGKAPKLLIYAVSNRPSGVSNRFSGSKSGNTASLTISGLQAEDEADYYCASYDERFTRVFGGGTKLTVLG
notes: also called Antibody Camille
B1 was tested, and the ELISA fluorescence units (human M-CSF) was greater than 35000 units, the binding result (Lysozyme (chicken)) was “no binding (tested: 100 nM and 10 nM antibody)” and the binding result (Lectin (Lens culinaris)) was “no binding (tested: 100 nM and 10 nM antibody)”. B1: no binding (tested: 100 nM and 10 nM antibody) (Cytochrome c (cow)); no binding (tested: 100 nM and 10 nM antibody) (Transferrin (bovine)); no binding (tested: 100 nM and 10 nM antibody) (RNase B (cow)). B1: no binding (tested: 100 nM and 10 nM antibody) (Fibrinogen (bovine)).
